Legend:
[1] = target: Ku70/80 heterodimer (human (endogenous in HeLa)) (UniProt P12956)
[2] = target: XRCC4-DNA ligase IV (X4L4) complex (human) (UniProt Q13426)
Chain of XRCC4-DNA ligase IV (X4L4) complex (human) (Q13426 whole entry, chain 1 of 2): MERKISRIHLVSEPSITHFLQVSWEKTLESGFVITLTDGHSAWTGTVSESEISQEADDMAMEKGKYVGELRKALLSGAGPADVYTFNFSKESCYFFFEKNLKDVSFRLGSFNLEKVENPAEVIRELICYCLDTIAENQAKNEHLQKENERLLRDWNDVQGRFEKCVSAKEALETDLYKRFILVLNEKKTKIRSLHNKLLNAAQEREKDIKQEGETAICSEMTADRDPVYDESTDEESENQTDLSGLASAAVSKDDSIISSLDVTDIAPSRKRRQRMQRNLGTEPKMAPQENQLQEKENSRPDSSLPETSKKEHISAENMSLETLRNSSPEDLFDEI
Chain of XRCC4-DNA ligase IV (X4L4) complex (human) (P49917 whole entry, chain 2 of 2, further chain): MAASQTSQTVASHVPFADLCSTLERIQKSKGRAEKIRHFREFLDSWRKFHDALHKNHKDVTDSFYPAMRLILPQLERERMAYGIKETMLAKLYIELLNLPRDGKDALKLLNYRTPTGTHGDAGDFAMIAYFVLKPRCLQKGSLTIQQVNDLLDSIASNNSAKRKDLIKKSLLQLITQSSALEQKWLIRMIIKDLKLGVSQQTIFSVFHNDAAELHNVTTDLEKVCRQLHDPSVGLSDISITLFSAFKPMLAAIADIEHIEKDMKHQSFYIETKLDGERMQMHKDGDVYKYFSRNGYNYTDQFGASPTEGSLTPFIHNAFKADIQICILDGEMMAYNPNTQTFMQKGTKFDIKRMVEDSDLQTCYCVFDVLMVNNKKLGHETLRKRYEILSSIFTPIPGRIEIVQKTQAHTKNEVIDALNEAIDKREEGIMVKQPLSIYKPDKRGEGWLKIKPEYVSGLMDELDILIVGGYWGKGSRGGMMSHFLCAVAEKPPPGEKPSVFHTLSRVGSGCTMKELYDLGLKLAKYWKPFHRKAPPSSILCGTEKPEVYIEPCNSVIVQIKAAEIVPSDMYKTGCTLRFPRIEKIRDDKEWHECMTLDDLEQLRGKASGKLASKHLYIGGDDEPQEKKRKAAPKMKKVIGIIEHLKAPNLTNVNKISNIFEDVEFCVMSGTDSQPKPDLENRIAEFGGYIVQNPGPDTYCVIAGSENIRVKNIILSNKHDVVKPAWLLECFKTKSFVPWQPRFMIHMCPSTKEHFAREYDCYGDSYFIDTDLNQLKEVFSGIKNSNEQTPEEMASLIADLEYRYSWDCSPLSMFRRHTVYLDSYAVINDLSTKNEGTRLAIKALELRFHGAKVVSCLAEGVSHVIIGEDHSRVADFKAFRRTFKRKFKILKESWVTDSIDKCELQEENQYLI

Chain of aprataxin and polynucleotide kinase/phosphatase-like factor (APLF), GST tag removed (Q8IW19 whole entry): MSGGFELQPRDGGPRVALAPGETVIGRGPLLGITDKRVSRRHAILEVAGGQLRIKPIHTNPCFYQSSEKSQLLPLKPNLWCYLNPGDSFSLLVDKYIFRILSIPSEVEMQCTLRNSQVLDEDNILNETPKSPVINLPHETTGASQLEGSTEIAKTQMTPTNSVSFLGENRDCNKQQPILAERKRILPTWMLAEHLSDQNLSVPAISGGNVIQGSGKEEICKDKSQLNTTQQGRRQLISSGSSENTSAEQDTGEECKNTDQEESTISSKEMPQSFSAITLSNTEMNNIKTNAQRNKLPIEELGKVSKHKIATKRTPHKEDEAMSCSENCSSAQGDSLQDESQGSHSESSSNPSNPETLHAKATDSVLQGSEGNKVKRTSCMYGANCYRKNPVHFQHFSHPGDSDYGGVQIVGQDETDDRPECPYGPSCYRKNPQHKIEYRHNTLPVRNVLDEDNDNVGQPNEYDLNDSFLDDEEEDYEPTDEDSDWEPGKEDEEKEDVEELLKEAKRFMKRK
Chain of Ku70/80 heterodimer (human (endogenous in HeLa)) (P12956 whole entry, chain 1 of 2): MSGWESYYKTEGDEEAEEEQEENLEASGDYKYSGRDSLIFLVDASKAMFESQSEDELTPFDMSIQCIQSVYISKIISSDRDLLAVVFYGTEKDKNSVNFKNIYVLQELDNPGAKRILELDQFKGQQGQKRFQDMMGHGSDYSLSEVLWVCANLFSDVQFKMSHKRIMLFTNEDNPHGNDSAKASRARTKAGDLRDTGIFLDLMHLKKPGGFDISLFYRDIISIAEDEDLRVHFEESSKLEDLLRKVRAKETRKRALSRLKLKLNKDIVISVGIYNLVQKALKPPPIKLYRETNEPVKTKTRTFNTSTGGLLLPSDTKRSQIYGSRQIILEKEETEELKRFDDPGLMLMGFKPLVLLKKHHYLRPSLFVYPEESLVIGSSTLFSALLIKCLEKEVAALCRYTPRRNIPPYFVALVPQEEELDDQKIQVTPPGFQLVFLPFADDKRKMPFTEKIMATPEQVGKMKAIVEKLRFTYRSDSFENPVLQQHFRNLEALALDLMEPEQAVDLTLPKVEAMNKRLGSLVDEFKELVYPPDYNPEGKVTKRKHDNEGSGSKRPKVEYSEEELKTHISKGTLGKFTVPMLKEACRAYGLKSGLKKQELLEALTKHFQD
Chain of Ku70/80 heterodimer (human (endogenous in HeLa)) (P13010 whole entry, chain 2 of 2, further chain): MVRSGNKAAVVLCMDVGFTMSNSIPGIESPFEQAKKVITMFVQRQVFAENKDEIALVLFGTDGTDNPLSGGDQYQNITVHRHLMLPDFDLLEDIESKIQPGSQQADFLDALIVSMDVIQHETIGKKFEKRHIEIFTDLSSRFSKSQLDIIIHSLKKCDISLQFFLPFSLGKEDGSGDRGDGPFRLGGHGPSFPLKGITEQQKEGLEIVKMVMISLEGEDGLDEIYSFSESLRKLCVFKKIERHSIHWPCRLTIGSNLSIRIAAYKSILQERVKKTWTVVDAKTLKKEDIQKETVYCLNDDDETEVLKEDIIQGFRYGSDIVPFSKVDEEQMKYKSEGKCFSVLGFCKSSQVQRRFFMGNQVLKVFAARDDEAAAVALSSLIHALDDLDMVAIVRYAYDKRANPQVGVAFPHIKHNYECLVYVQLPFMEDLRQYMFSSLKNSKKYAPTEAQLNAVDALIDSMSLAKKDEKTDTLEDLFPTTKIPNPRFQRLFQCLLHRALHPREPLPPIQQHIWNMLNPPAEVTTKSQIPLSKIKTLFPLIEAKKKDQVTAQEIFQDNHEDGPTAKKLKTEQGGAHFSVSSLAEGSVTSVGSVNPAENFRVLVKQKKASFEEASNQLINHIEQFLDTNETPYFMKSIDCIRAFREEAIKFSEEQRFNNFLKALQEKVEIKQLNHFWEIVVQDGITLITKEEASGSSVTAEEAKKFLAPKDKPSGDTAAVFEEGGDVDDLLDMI

stoichiometry N [1]: 1
stoichiometry N [2]: 1
Substance: aprataxin and polynucleotide kinase/phosphatase-like factor (APLF), GST tag removed (from UniProt Q8IW19 1-511) (natural protein)

— publication PMC5207133
